Reference: patent publication US20220048993A1

Target: truncated human FcRH5 (deletion of amino acids 1-744) with N-terminal gD tag (human) (UniProt Q96RD9)
Assay: cell-based or functional assay

truncated human FcRH5 (deletion of amino acids 1-744) with N-terminal gD tag (human), sequence (Q96RD9 745-977, stated change not applied): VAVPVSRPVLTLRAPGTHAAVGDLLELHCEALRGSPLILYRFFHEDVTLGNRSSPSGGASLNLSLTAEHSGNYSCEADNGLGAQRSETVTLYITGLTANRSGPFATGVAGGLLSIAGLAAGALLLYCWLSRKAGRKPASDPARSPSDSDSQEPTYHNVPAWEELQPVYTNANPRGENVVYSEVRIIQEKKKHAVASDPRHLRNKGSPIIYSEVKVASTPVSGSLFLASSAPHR

## anti-gD/UCHT1.v9 TDB (bispecific antibody)
  target cell killing, EC50: 0.19 nM
